Assay results: patent publication US20120251444A1

Biological target: LRP1 on wild-type CHO-K1 cells
Experiment: cell-based or functional assay

mini-RAPc (Hep1) combined with equimolar streptavidin-saporin conjugate (ZAP) (from UniProt P22629 37-163)
reduction of viable cell number (MTT assay, 100 nM, 48 hours): 40%
